Read-outs that look alike come from different tables or passages of the source. Primed or numbered codes have the meaning given here. [ ]: non-standard residue; d: D form. Ygp″ = O-(PEG8-amino)-tyrosine (O-(8x polyethylene glycol-amino)-tyrosine); Yn3″ = O-(PEG9-azido)-tyrosine (O-(9x polyethylene glycol-azido)-tyrosine); Ygp = O-(8x polyethylene glycol-amino)-tyrosine; Yn3 = O-(9x polyethylene glycol-azido)-tyrosine; hSer = N[C@@H](CCO)C(=O)O; Nle = CCCC[C@H](N)C(=O)O
Legend:
[1] = target: T1, IL-2 receptor βγ complex on pan T cells (human, UniProt P14784 27-551; P31785 23-369); assay: cell-based or functional assay
T1 sequence (looked up) 1: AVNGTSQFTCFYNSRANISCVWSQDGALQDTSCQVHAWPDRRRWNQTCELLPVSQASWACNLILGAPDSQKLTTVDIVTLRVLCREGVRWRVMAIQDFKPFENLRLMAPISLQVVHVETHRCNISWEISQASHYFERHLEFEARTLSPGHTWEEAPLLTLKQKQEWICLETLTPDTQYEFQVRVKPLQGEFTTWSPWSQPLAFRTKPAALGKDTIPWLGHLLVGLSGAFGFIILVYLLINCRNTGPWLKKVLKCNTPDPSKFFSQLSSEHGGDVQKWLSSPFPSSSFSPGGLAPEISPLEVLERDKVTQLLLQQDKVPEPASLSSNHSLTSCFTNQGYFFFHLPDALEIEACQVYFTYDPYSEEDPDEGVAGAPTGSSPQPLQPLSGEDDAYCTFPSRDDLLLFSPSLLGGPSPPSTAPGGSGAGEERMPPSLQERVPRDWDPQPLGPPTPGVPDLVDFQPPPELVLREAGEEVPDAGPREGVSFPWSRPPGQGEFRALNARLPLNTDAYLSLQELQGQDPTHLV
T1 sequence (looked up) 2: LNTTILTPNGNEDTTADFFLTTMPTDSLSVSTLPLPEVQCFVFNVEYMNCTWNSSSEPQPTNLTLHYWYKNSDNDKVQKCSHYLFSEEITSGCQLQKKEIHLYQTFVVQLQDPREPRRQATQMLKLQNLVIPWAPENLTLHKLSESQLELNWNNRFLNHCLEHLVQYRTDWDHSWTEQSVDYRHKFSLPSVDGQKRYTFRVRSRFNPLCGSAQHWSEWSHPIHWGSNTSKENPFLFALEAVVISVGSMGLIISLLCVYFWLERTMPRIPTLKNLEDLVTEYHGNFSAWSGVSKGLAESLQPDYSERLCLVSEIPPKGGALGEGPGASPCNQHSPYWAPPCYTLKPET

[2] = target: T1, IL-2 receptor βγ complex on pan T cells; assay: cell-based or functional assay; remark: listed apart in the source

B1: CMP-147 (ligand)
chain: APTSSSTKKTQLKLEHLLLDLQ[Nle]ILNGINNYKNPKLTR[Nle]L[hSer][Yn3]KF[Ygp][Nle]PKKATELKHLQCLEEELKPLEEVL[hSer]LAQSKNFHLRPRDLISNINVIVLELKGSETTF[hSer]CEYADETATIVEFLNRWITFSQSIISTLT
modifications: not fully specified (residue 13); ends and bridges not checked; also: cleavable moiety on Lys13 side chain, structure not given here
- Average EC50, pSTAT5 assay in pan T cells, intact molecule [1]: 3.86 nM

B2: CMP-146, MMP2 cleaved (ligand)
chain: APTSSSTKKTKLQLEHLLLDLQ[Nle]ILNGINNYKNPKLTR[Nle]L[hSer][Yn3]KF[Ygp][Nle]PKKATELKHLQCLEEELKPLEEVL[hSer]LAQSKNFHLRPRDLISNINVIVLELKGSETTF[hSer]CEYADETATIVEFLNRWITFSQSIISTLT
modifications: not fully specified (residue 11); ends and bridges not checked; also: MMP2-cut remnant of cleavable moiety on Lys11 side chain, not given here
- Average EC50, pSTAT5 assay in pan T cells, MMP2 cleaved molecule [1]: 0.92 nM

B3: CMP-148, MMP2 cleaved (ligand)
chain: APTSSSTKKTQLQLKHLLLDLQ[Nle]ILNGINNYKNPKLTR[Nle]L[hSer][Yn3]KF[Ygp][Nle]PKKATELKHLQCLEEELKPLEEVL[hSer]LAQSKNFHLRPRDLISNINVIVLELKGSETTF[hSer]CEYADETATIVEFLNRWITFSQSIISTLT
modifications: not fully specified (residue 15); ends and bridges not checked; also: MMP2-cut remnant of cleavable moiety on Lys15 side chain, not given here
- Average EC50, pSTAT5 assay in pan T cells, MMP2 cleaved molecule [1]: 0.95 nM

B4: CMP-149, MMP2 cleaved (ligand)
chain: APTSSSTKKTQLQLEHLLKDLQ[Nle]ILNGINNYKNPKLTR[Nle]L[hSer][Yn3]KF[Ygp][Nle]PKKATELKHLQCLEEELKPLEEVL[hSer]LAQSKNFHLRPRDLISNINVIVLELKGSETTF[hSer]CEYADETATIVEFLNRWITFSQSIISTLT
modifications: not fully specified (residue 19); ends and bridges not checked; also: MMP2-cut remnant of cleavable moiety on Lys19 side chain, not given here
- Average EC50, pSTAT5 assay in pan T cells, MMP2 cleaved molecule [1]: 9.56 nM

B5: CMP-137, MMP2 cleaved (ligand)
chain: APTSSSTKKTQLQLEHLLLDLQ[Nle]ILNGIENYKNPKLTR[Nle]L[hSer][Yn3″]KF[Ygp″][Nle]PKKATELKHLQCLEEELKPLEEVL[hSer]LAQSKNFHLRPRDLISNINVIVLELKGSETTF[hSer]CEYADETATIVEFLNRWITFSQSIISTLT
modifications: not fully specified (residue 29, N-terminus); ends and bridges not checked; also: macrocycle opened by MMP2, Ala1 N-terminus and Glu29 side chain each carry PEG24-linked peptide remnant, cut site not given here
- Average EC50, pSTAT5 assay in pan T cells, MMP2 cleaved molecule [2]: 4.09 nM

B6: CMP-136, MMP2 cleaved (ligand)
chain: APTSSSTKKTQLQLEHLLLDLQXILNGIENYKNPKLTRXLXYKFYXPKKATELKHLQCLEEELKPLEEVLXLAQSKNFHLRPRDLISNINVIVLELKGSETTFXCEYADETATIVEFLNRWITFSQSIISTLT
modifications: not fully specified; as CMP-136 but cleavable peptide cut by MMP2 (macrocycle opened); cut site not given
- Average EC50, pSTAT5 assay in pan T cells, MMP2 cleaved molecule [2]: 2.4 nM

B7: CMP-138, MMP2 cleaved (ligand)
chain: APTSSSTKKTQLQLEHLLLDLQXILNGIENYKNPKLTRXLXYKFYXPKKATELKHLQCLEEELKPLEEVLXLAQSKNFHLRPRDLISNINVIVLELKGSETTFXCEYADETATIVEFLNRWITFSQSIISTLT
modifications: not fully specified; as CMP-138 but cleavable peptide cut by MMP2 (macrocycle opened); cut site not given
- Average EC50, pSTAT5 assay in pan T cells, MMP2 cleaved molecule [2]: 2.32 nM

B8: CMP-145, MMP2 cleaved (ligand)
chain: APTSSSTKKTQLQLEHLLLDLQKILNGINNYKNPKLTR[Nle]L[hSer][Yn3]KF[Ygp][Nle]PKKATELKHLQCLEEELKPLEEVL[hSer]LAQSKNFHLRPRDLISNINVIVLELKGSETTF[hSer]CEYADETATIVEFLNRWITFSQSIISTLT
modifications: not fully specified (residue 23, bridges); also: Lys23 side chain bears KKPLGLAG (branched PEG) peptide cut by MMP2, remnants stay attached, cut site not given here
- Average EC50, pSTAT5 assay in pan T cells, MMP2 cleaved molecule [1]: 1.43 nM

B9: CMP-146 (ligand)
chain: APTSSSTKKTKLQLEHLLLDLQ[Nle]ILNGINNYKNPKLTR[Nle]L[hSer][Yn3]KF[Ygp][Nle]PKKATELKHLQCLEEELKPLEEVL[hSer]LAQSKNFHLRPRDLISNINVIVLELKGSETTF[hSer]CEYADETATIVEFLNRWITFSQSIISTLT
modifications: not fully specified (residue 11); ends and bridges not checked; also: cleavable moiety on Lys11 side chain, structure not given here
- Average EC50, pSTAT5 assay in pan T cells, intact molecule [1]: 4.29 nM

B10: CMP-147, MMP2 cleaved (ligand)
chain: APTSSSTKKTQLKLEHLLLDLQ[Nle]ILNGINNYKNPKLTR[Nle]L[hSer][Yn3]KF[Ygp][Nle]PKKATELKHLQCLEEELKPLEEVL[hSer]LAQSKNFHLRPRDLISNINVIVLELKGSETTF[hSer]CEYADETATIVEFLNRWITFSQSIISTLT
modifications: not fully specified (residue 13); ends and bridges not checked; also: MMP2-cut remnant of cleavable moiety on Lys13 side chain, not given here
- Average EC50, pSTAT5 assay in pan T cells, MMP2 cleaved molecule [1]: 1.29 nM

B11: CMP-149 (ligand)
chain: APTSSSTKKTQLQLEHLLKDLQ[Nle]ILNGINNYKNPKLTR[Nle]L[hSer][Yn3]KF[Ygp][Nle]PKKATELKHLQCLEEELKPLEEVL[hSer]LAQSKNFHLRPRDLISNINVIVLELKGSETTF[hSer]CEYADETATIVEFLNRWITFSQSIISTLT
modifications: not fully specified (residue 19); ends and bridges not checked; also: cleavable moiety on Lys19 side chain, structure not given here
- Average EC50, pSTAT5 assay in pan T cells, intact molecule [1]: 46.7 nM

B12: CMP-144, MMP2 cleaved (ligand)
chain: APTSSSTKKTQLQLEHLLLDLQKILNGINNYKNPKLTR[Nle]L[hSer][Yn3]KF[Ygp][Nle]PKKATELKHLQCLEEELKPLEEVL[hSer]LAQSKNFHLRPRDLISNINVIVLELKGSETTF[hSer]CEYADETATIVEFLNRWITFSQSIISTLT
modifications: not fully specified (residue 23); ends and bridges not checked; also: MMP2-cut remnant of cleavable moiety on Lys23 side chain, not given here
- Average EC50, pSTAT5 assay in pan T cells, MMP2 cleaved molecule [1]: 0.63 nM

B13: CMP-148 (ligand)
chain: APTSSSTKKTQLQLKHLLLDLQ[Nle]ILNGINNYKNPKLTR[Nle]L[hSer][Yn3]KF[Ygp][Nle]PKKATELKHLQCLEEELKPLEEVL[hSer]LAQSKNFHLRPRDLISNINVIVLELKGSETTF[hSer]CEYADETATIVEFLNRWITFSQSIISTLT
modifications: not fully specified (residue 15); ends and bridges not checked; also: cleavable moiety on Lys15 side chain, structure not given here
- Average EC50, pSTAT5 assay in pan T cells, intact molecule [1]: 3.57 nM

B14: CMP-150 (ligand)
chain: APTSSSTKKTQLQLEHLLLDLK[Nle]ILNGINNYKNPKLTR[Nle]L[hSer][Yn3]KF[Ygp][Nle]PKKATELKHLQCLEEELKPLEEVL[hSer]LAQSKNFHLRPRDLISNINVIVLELKGSETTF[hSer]CEYADETATIVEFLNRWITFSQSIISTLT
modifications: not fully specified (residue 22); ends and bridges not checked; also: cleavable moiety on Lys22 side chain, structure not given here
- Average EC50, pSTAT5 assay in pan T cells, intact molecule [1]: 6.38 nM

B15: CMP-150, MMP2 cleaved (ligand)
chain: APTSSSTKKTQLQLEHLLLDLK[Nle]ILNGINNYKNPKLTR[Nle]L[hSer][Yn3]KF[Ygp][Nle]PKKATELKHLQCLEEELKPLEEVL[hSer]LAQSKNFHLRPRDLISNINVIVLELKGSETTF[hSer]CEYADETATIVEFLNRWITFSQSIISTLT
modifications: also: K22 side chain bears remnant of cleavable peptide after MMP2 cut, cut site not given here
- Average EC50, pSTAT5 assay in pan T cells, MMP2 cleaved molecule [1]: 0.45 nM
